These are literature values, as cited in PMC2817915.

“And” between values parts separate entries of the source, which are not always exact repeats. Equal entries are not always repeated.

Among the targets are Asp101 (UniProt position 119, KKIVSDGNGMN); Asp119 (UniProt position 137, RCKGTDVQAWI); Asp18 (UniProt position 36, KRHGLDNYRGY); Asp48 (UniProt position 66, TNRNTDGSTDY); Asp52 (UniProt position 70, TDGSTDYGILQ); Asp66 (UniProt position 84, RWWCNDGRTPG); Asp87 (UniProt position 105, ALLSSDITASV); Glu35 (UniProt position 53, CAAKFESNFNT); Glu7 (UniProt position 25, VFGRCELAAAM); His15 (UniProt position 33, AAMKRHGLDNY).

What all share (details): native HEWL; ligand state not stated

Take “Hen egg-white lysozyme (HEWL, lysozyme C) (Gallus gallus)”: the pKa (in general, the pH at which an ionisable group is half protonated) is 4.09 with Asp101; 3.20 with Asp119; 2.66 with Asp18; 2.50 with Asp48; 3.68 and 3.6−3.76 in the series with Asp52; 2.00 with Asp66. Moreover, the pKa is 2.07 with Asp87, 6.20 in the series with Glu35, 2.85 with Glu7 and 5.71 with His15.
